According to patent US20030186281A1, “Modified tetracycline repressor protein compositions and methods of use” (priority 2001, published 2003):

Tested on: tet operator sequence
Assay: β-galactosidase activity of a tetracycline-regulated promoter in transformed E. coli with revTetR, in the presence and absence of anhydrotetracycline (atc)
Format: cell-based, Escherichia coli
Conditions: for β-Galactosidase Activity, Cultured Without ATC: RevTetR isolate cultured in the absence of anhydrotetracycline (ATC); for β-Galactosidase Activity, Cultured With ATC: RevTetR isolate cultured in the presence of anhydrotetracycline (ATC)
Experimental: The relative activity of revTetR repressors was determined at 28° C. and 37° C. for each clone by measuring β-galactosidase activity of a tetracycline-regulated promoter in transformed Escherichia coli in the presence and absence of the tetracycline analog, anhydrotetracycline (atc). The relative β-galactosidase activity was measured in standard Miller units and is presented as the percent of maximal expression as measured in the absence of Tet repressor. […] With respect to each mutant, as well as the wild-type controls, FIG. 2 provides two horizontal bars; the upper horizontal bar represents the level of β-galactosidase activity in the absence of anhydrotetracycline (−atc) while the lower horizontal bar represents the level of β-galactosidase activity in the presence of anhydrotetracycline (+atc).
The pool of mutated Tet repressors was cloned into plasmid pWH1411 (Baumeister et al., 1992, Proteins: Struct. Funct. Genet. 14: 168-77), which carries a TetR(B) gene, to provide a TetR(BD) chimera that included, as the amino-terminal portion, amino acid residues 1 to 50 of the TetR(B) gene and, as the carboxyl-terminal portion, amino acid residues 51 to 208 of the TetR(D) gene. The resulting plasmid pool was screened in a genetic assay which positively selects for a functional interaction between a Tet repressor and its cognate operator using E. coli strain WH207(λWH25) (the construction of this strain is described in detail in Wissmann et al., (1991) Genetics 128: 225-32). In this E. coli strain, tet operators direct the expression of divergently arranged β-galactosidase (lacZ) and Lac repressor (lacI) genes and the lac regulatory region directs the expression of a galactokinase (galK) gene on plasmid pWH414. Binding of Tet repressors to tet operators turns off transcription of the lacI and lacZ genes. The absence of Lac repressor allows for expression of the galK gene, which enables the E. coli strain to use galactose as a sole carbon source, which serves as one marker. The lacZ^− phenotype serves as a second marker. Thus, bacteria containing Tet repressors which bind to tet operators, have a Gal^+, lacZ^− phenotype. Bacteria containing wild-type Tet repressors have a Gal^+, lacZ^− phenotype in the absence of tetracycline. Modified “reverse” Tet repressors (revTetR) were selected based upon a Gal^+, lacZ^− phenotype in the presence of tetracycline.
The ability of each revTetR clone to bind to its cognate tet operator sequence and regulate transcription in a prokaryotic organism, Escherichia coli, in the presence and absence of a tetracycline analog (anhydrotetracycline, atc) was determined (Table 3, FIG. 2). The relative ratios of non-repressed to repressed levels of transcription for the 15 clones range from about 1.4-fold to about 50-fold at 28° C. and from about 1.3-fold to 40-fold at 37° C. For example, clone 4b comprising an amino acid substitution of glutamic acid for glycine at position 96 (e.g., SEQ ID NO. 24) repressed transcription 19-fold at 37° C. but to a less extent at 28° C. (5.7-fold, Table 3). Furthermore, clones 14, 5a and 7 comprising the arginine for glycine substitution at position 96 and further comprising a substitution or substitutions of serine for threonine at position 103 and valine for glutamic acid at position 114; leucine for proline at position 159; or glutamine to histidine at position 188, respectively, have pronouncedly different activities.
wherein each underlined base was present in approximately 85% of the oligonucleotides, while the remaining approximately 15% of the oligonucleotides contained one of the other three, non-wild type bases at that position. Similar mutagenic, partially randomized oligonucleotides were prepared for mutagenesis of the coding regions for amino acids 14-25 and 93-102. It was predicted that, according to a binomial distribution, each oligonucleotide would contain three to four mutations. […]

| Molecule | β-Galactosidase Activity, Cultured Without ATC | β-Galactosidase Activity, Cultured With ATC |
| --- | --- | --- |
| TetRrevAD2/12: revTetR(BD) E23H D53Y A56A E58Q I59T (protein, Modified tetracycline repressor, revTetR(BD) E23H D53Y A56A E58Q I59T) MSRLDKSKVINSALELLNEVGIHGLTTRKLAQKLGVEQPTLYWHVKNKRALLYALAVQTLARHHDYSLPAAGESWQSFLRNNAMSFRRALLRYRDGAKVHLGTRPDEKQYDTVETQLRFMTENGFSLRDGLYAISAVSHFTLGAVLEQQEHTAALTDRPAAPDENLPPLLREALQIMDSDDGEQAFLHGLESLIRGFEVQLTALLQIV | 73.5981 | 1.2806 |
| TetRrevAD2/13: revTetR(BD) E19D V20E E23K V57L I59N L60F A61A (protein, Modified tetracycline repressor, revTetR(BD) E19D V20E E23K V57L I59N L60F A61A) MSRLDKSKVINSALELLNDEGIKGLTTRKLAQKLGVEQPTLYWHVKNKRALLDALALENFARHHDYSLPAAGESWQSFLRNNAMSFRRALLRYRDGAKVHLGTRPDEKQYDTVETQLRFMTENGFSLRDGLYAISAVSHFTLGAVLEQQEHTAALTDRPAAPDENLPPLLREALQIMDSDDGEQAFLHGLESLIRGFEVQLTALLQIV | 71.1255 | 1.3355 |
| TetRrevAtc4-10: revTetR(BD) I59N L60F A61G (protein, Modified tetracycline repressor, revTetR(BD) I59N L60F A61G) MSRLDKSKVINSALELLNEVGIEGLTTRKLAQKLGVEQPTLYWHVKNKRALLDALAVENFGRHHDYSLPAAGESWQSFLRNNAMSFRRALLRYRDGAKVHLGTRPDEKQYDTVETQLRFMTENGFSLRDGLYAISAVSHFTLGAVLEQQEHTAALTDRPAAPDENLPPLLREALQIMDSDDGEQAFLHGLESLIRGFEVQLTALLQIV | 69.401 | 11.275 |
| TetRrevAD2/2: revTetR(BD) L14I G21R A56V (protein, Modified tetracycline repressor, revTetR(BD) L14I G21R A56V) MSRLDKSKVINSAIELLNEVRIEGLTTRKLAQKLGVEQPTLYWHVKNKRALLDALVVEILARHHDYSLPAAGESWQSFLRNNAMSFRRALLRYRDGAKVHLGTRPDEKQYDTVETQLRFMTENGFSLRDGLYAISAVSHFTLGAVLEQQEHTAALTDRPAAPDENLPPLLREALQIMDSDDGEQAFLHGLESLIRGFEVQLTALLQIV | 94.968 | 5.2312 |
| TetRrevAF1/3: revTetR(BD) G24G D95A G96R (protein, Modified tetracycline repressor, revTetR(BD) G24G D95A G96R) MSRLDKSKVINSALELLNEVGIEGLTTRKLAQKLGVEQPTLYWHVKNKRALLDALAVEILARHHDYSLPAAGESWQSFLRNNAMSFRRALLRYRARAKVHLGTRPDEKQYDTVETQLRFMTENGFSLRDGLYAISAVSHFTLGAVLEQQEHTAALTDRPAAPDENLPPLLREALQIMDSDDGEQAFLHGLESLIRGFEVQLTALLQIV | 59.773 | 1.2536 |
| TetRrevAF1/4: revTetR(BD) N18K D95V G96V A97V (protein, Modified tetracycline repressor, revTetR(BD) N18K D95V G96V A97V) MSRLDKSKVINSALELLKEVGIEGLTTRKLAQKLGVEQPTLYWHVKNKRALLDALAVEILARHHDYSLPAAGESWQSFLRNNAMSFRRALLRYRVVVKVHLGTRPDEKQYDTVETQLRFMTENGFSLRDGLYAISAVSHFTLGAVLEQQEHTAALTDRPAAPDENLPPLLREALQIMDSDDGEQAFLHGLESLIRGFEVQLTALLQIV | 81.2613 | 13.459 |
| TetRrevAF1/5: revTetR(BD) L14V G24G Y93D R94G D95G (protein, Modified tetracycline repressor, revTetR(BD) L14V G24G Y93D R94G D95G) MSRLDKSKVINSAVELLNEVGIEGLTTRKLAQKLGVEQPTLYWHVKNKRALLDALAVEILARHHDYSLPAAGESWQSFLRNNAMSFRRALLRDGGGAKVHLGTRPDEKQYDTVETQLRFMTENGFSLRDGLYAISAVSHFTLGAVLEQQEHTAALTDRPAAPDENLPPLLREALQIMDSDDGEQAFLHGLESLIRGFEVQLTALLQIV | 102.015 | 1.1988 |
| TetRrevAD3/2: revTetR(BD) A56P E58H A61A H63Y (protein, Modified tetracycline repressor, revTetR(BD) A56P E58H A61A H63Y) MSRLDKSKVINSALELLNEVGIEGLTTRKLAQKLGVEQPTLYWHVKNKRALLDALPVHILARYHDYSLPAAGESWQSFLRNNAMSFRRALLRYRDGAKVHLGTRPDEKQYDTVETQLRFMTENGFSLRDGLYAISAVSHFTLGAVLEQQEHTAALTDRPAAPDENLPPLLREALQIMDSDDGEQAFLHGLESLIRGFEVQLTALLQIV | 60.3284 | 3.5891 |
| TetRrevAF2/7: revTetR(BD) Y93C D95E A97T (protein, Modified tetracycline repressor, revTetR(BD) Y93C D95E A97T) MSRLDKSKVINSALELLNEVGIEGLTTRKLAQKLGVEQPTLYWHVKNKRALLDALAVEILARHHDYSLPAAGESWQSFLRNNAMSFRRALLRCREGTKVHLGTRPDEKQYDTVETQLRFMTENGFSLRDGLYAISAVSHFTLGAVLEQQEHTAALTDRPAAPDENLPPLLREALQIMDSDDGEQAFLHGLESLIRGFEVQLTALLQIV | 70.3163 | 2.8977 |
| TetRrevAF6/12: revTetR(BD) L14F E15E G96V K98E V99L L101P (protein, Modified tetracycline repressor, revTetR(BD) L14F E15E G96V K98E V99L L101P) MSRLDKSKVINSAFELLNEVGIEGLTTRKLAQKLGVEQPTLYWHVKNKRALLDALAVEILARHHDYSLPAAGESWQSFLRNNAMSFRRALLRYRDVAELHPGTRPDEKQYDTVETQLRFMTENGFSLRDGLYAISAVSHFTLGAVLEQQEHTAALTDRPAAPDENLPPLLREALQIMDSDDGEQAFLHGLESLIRGFEVQLTALLQIV | 82.6734 | 1.3259 |
| TetRrevAF7/1: revTetR(BD) Y93C G96R K98N (protein, Modified tetracycline repressor, revTetR(BD) Y93C G96R K98N) MSRLDKSKVINSALELLNEVGIEGLTTRKLAQKLGVEQPTLYWHVKNKRALLDALAVEILARHHDYSLPAAGESWQSFLRNNAMSFRRALLRCRDRANVHLGTRPDEKQYDTVETQLRFMTENGFSLRDGLYAISAVSHFTLGAVLEQQEHTAALTDRPAAPDENLPPLLREALQIMDSDDGEQAFLHGLESLIRGFEVQLTALLQIV | 89.3536 | 1.3792 |
| TetRrevAF7/2: revTetR(BD) L14V E15V E23D K48K G96L G102A (protein, Modified tetracycline repressor, revTetR(BD) L14V E15V E23D K48K G96L G102A) MSRLDKSKVINSAVVLLNEVGIDGLTTRKLAQKLGVEQPTLYWHVKNKRALLDALAVEILARHHDYSLPAAGESWQSFLRNNAMSFRRALLRYRDLAKVHLATRPDEKQYDTVETQLRFMTENGFSLRDGLYAISAVSHFTLGAVLEQQEHTAALTDRPAAPDENLPPLLREALQIMDSDDGEQAFLHGLESLIRGFEVQLTALLQIV | 58.8637 | 3.7321 |
